Consider 1 sequence from publication PMC2936520.

This series addresses OsAP2-39 (OsNUE39) (Oryza sativa) (UniProt Q7XPL6). The series can be described thus: EMSA. The note with it: Invitrogen EMSA kit E33075 per manufacturer; 30 ng protein with 0-400 ng DNA; 4-20% TBE native gel, 200 V, 45 min; buffer, salt, pH and temperature not stated. (In general: A gel shift assay detects complexes by their altered migration in electrophoresis.)

OsAP2-39 (OsNUE39) (Oryza sativa), sequence (Q7XPL6 entry or part of it): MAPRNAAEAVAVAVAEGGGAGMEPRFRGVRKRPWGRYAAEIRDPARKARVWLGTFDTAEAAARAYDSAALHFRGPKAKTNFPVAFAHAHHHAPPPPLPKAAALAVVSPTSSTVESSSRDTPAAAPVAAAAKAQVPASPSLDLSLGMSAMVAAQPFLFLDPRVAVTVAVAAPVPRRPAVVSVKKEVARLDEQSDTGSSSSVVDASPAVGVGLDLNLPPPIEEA

In the case of “AGTGTTCTGTTCCCCCGGGGAGATAAACCCCCCCTCCTTGGCAACGATACTACCAAGGTTTCTCATCACCAAGATTGTTTGCATGGGACACAGTAACAAACACCGCAGCCGCCGGCGCCGCAGACATT (double strand) [OsNCED-1 promoter GCC-box fragment]”, the binding entry was “binds”.
